This series in a line: melting temperature; UV melt of duplexes.

One may read the Tm as the temperature at which the thermal transition is half complete. Turning to “ACCGACGACGCTGATCCGAT+ATCGGATCAGCGTCGTCGGT ((((((((((((((((((((+))))))))))))))))))))”, the Tm is, setting by setting: (sodium 0.07 M, strand 2 µM) 66 °C; (sodium 0.12 M, strand 2 µM) 69.1 °C; (sodium 0.22 M, strand 2 µM) 72.6 °C; (sodium 0.62 M, strand 2 µM) 76.8 °C; (sodium 1.02 M, strand 2 µM) 77.3 °C.
In the case of “ATATATATAGCTTTTTTTTT+AAAAAAAAAGCTATATATAT ((((((((((((((((((((+))))))))))))))))))))”, where the note is “sodium 0.12 M, strand 6 µM”, the melting temperature (Tm) was determined as 44.3 °C.
Consider “GTTCTATACTCTTGAAGTTGATTAC+GTAATCAACTTCAAGAGTATAGAAC (((((((((((((((((((((((((+)))))))))))))))))))))))))”, for which the melting temperature (Tm) stood at 52.7 °C (sodium 0.07 M, strand 2 µM); 56.1 °C (sodium 0.12 M, strand 2 µM); 60.6 °C (sodium 0.22 M, strand 2 µM); 66.1 °C (sodium 0.62 M, strand 2 µM); 67.7 °C (sodium 1.02 M, strand 2 µM).
On to “CGAGCTTATCCCTATCCCTC+GAGGGATAGGGATAAGCTCG ((((((((((((((((((((+))))))))))))))))))))”, for which the melting temperature (Tm) is, setting by setting: (sodium 0.07 M, strand 2 µM) 56 °C; (sodium 0.12 M, strand 2 µM) 60.2 °C; (sodium 0.22 M, strand 2 µM) 64.1 °C; (sodium 0.62 M, strand 2 µM) 68.5 °C; (sodium 1.02 M, strand 2 µM) 70.3 °C.
With “CAGCAGCAGCAGCAGCAGCAGCAGCAGCAG+CTGCTGCTGCTGCTGCTGCTGCTGCTGCTG ((((((((((((((((((((((((((((((+))))))))))))))))))))))))))))))”, the Tm (sodium 0.15 M, strand 0.0001 M) was found to be 83 °C.
Turning to “CCACTATACCATCTATGTAC+GTACATAGATGGTATAGTGG ((((((((((((((((((((+))))))))))))))))))))”, the Tm reads like this: (sodium 0.07 M, strand 2 µM) 51.1 °C; (sodium 0.12 M, strand 2 µM) 54.6 °C; (sodium 0.22 M, strand 2 µM) 58.4 °C; (sodium 0.62 M, strand 2 µM) 62.2 °C; (sodium 1.02 M, strand 2 µM) 64.4 °C.
For “TCGGAGAAATCACTGAGCTGCCTGAGAAGA+TCTTCTCAGGCAGCTCAGTGATTTCTCCGA ((((((((((((((((((((((((((((((+))))))))))))))))))))))))))))))” the same measures were 66.3 °C, 70.4 °C, 74.1 °C, 79 °C and 80.9 °C.
For “CGCGCCACGTGTGATCTACAGCCGTTCGGC+GCCGAACGGCTGTAGATCACACGTGGCGCG ((((((((((((((((((((((((((((((+))))))))))))))))))))))))))))))”, the Tm reads like this: (sodium 0.07 M, strand 2 µM) 72.7 °C; (sodium 0.12 M, strand 2 µM) 76.3 °C; (sodium 0.22 M, strand 2 µM) 79.5 °C; (sodium 0.62 M, strand 2 µM) 83.4 °C; (sodium 1.02 M, strand 2 µM) 84.5 °C.
As for “ATATATAGCTATATAT+ATATATAGCTATATAT ((((((((((((((((+))))))))))))))))”, the Tm (sodium 0.12 M, strand 5 µM) amounted to 39.1 °C.
“AATATATATAGAGTGCGCGCAA+TTGCGCGCACTCTATATATATT ((((((((((((((((((((((+))))))))))))))))))))))”: the Tm (sodium 0.12 M, strand 3.3 µM) is 64.1 °C.
As for “AATATATGATCATCGAT+ATCGATGATCATATATT (((((((((((((((((+)))))))))))))))))”, the midpoint of thermal melting (Tm) (sodium 0.12 M, strand 3 µM) came to 50 °C.
With “TATTGAGAACAAGTGTCCGATTAGCAGAAA+TTTCTGCTAATCGGACACTTGTTCTCAATA ((((((((((((((((((((((((((((((+))))))))))))))))))))))))))))))”, the midpoint of thermal melting (Tm) reads like this: (sodium 0.07 M, strand 2 µM) 61.3 °C; (sodium 0.12 M, strand 2 µM) 65.4 °C; (sodium 0.22 M, strand 2 µM) 69.6 °C; (sodium 0.62 M, strand 2 µM) 74.8 °C; (sodium 1.02 M, strand 2 µM) 76.4 °C.
Turning to “CGCGCGCGACTGACTG+CAGTCAGTCGCGCGCG ((((((((((((((((+))))))))))))))))”, the melting temperature (Tm) (sodium 0.12 M, strand 44 µM) is 69.4 °C.
For the substance “GTAGAATTCTTTTCCTTCTAGATCG+CGATCTAGAAGGAAAAGAATTCTAC (((((((((((((((((((((((((+)))))))))))))))))))))))))”, the midpoint of thermal melting (Tm) (sodium 0.1 M, strand 1 µM) was 62 °C.
In the case of “AACGTGAATTCTGGCA+TGCCAGAATTCACGTT ((((((((((((((((+))))))))))))))))”, under “sodium 0.12 M, strand 7.4 µM”, the Tm was 58.3 °C.
Regarding “ATAAAAATGAATTCATTTTTAT+ATAAAAATGAATTCATTTTTAT ((((((((((((((((((((((+))))))))))))))))))))))”, the Tm (sodium 0.12 M, strand 7 µM) amounted to 52.8 °C.
Regarding “GATATAGCAAAATTCTAAGTTAATA+TATTAACTTAGAATTTTGCTATATC (((((((((((((((((((((((((+)))))))))))))))))))))))))”, the Tm by setting is: (sodium 0.07 M, strand 2 µM) 49.1 °C; (sodium 0.12 M, strand 2 µM) 53.5 °C; (sodium 0.22 M, strand 2 µM) 57.7 °C; (sodium 0.62 M, strand 2 µM) 63.3 °C; (sodium 1.02 M, strand 2 µM) 66.1 °C.
As for “GTTATTCCGCAGTCCGATGGCAGCAGGCTC+GAGCCTGCTGCCATCGGACTGCGGAATAAC ((((((((((((((((((((((((((((((+))))))))))))))))))))))))))))))”, the Tm reads like this: (sodium 0.07 M, strand 2 µM) 70.6 °C; (sodium 0.12 M, strand 2 µM) 74.9 °C; (sodium 0.22 M, strand 2 µM) 78.1 °C; (sodium 0.62 M, strand 2 µM) 82.4 °C; (sodium 1.02 M, strand 2 µM) 84.1 °C.
For “ACGGGTCCCCGCACCGCACCGCCAG+CTGGCGGTGCGGTGCGGGGACCCGT (((((((((((((((((((((((((+)))))))))))))))))))))))))” the same measures were 76.8 °C, 79.9 °C, 84 °C, 87.1 °C and 88.3 °C.
As to “ACAGCGAATGGACCTACGTGGCCTT+AAGGCCACGTAGGTCCATTCGCTGT (((((((((((((((((((((((((+)))))))))))))))))))))))))”, the melting temperature (Tm) is 68.1 °C (sodium 0.07 M, strand 2 µM); 72.1 °C (sodium 0.12 M, strand 2 µM); 76 °C (sodium 0.22 M, strand 2 µM); 79.4 °C (sodium 0.62 M, strand 2 µM); 81 °C (sodium 1.02 M, strand 2 µM).
As for “TTCAAGTTAAACATTCTATC+GATAGAATGTTTAACTTGAA ((((((((((((((((((((+))))))))))))))))))))”, the Tm runs as follows: (sodium 0.07 M, strand 2 µM) 45.7 °C; (sodium 0.12 M, strand 2 µM) 49.5 °C; (sodium 0.22 M, strand 2 µM) 53.9 °C; (sodium 0.62 M, strand 2 µM) 59.4 °C; (sodium 1.02 M, strand 2 µM) 61.5 °C.
For “AAAGTACATCAACATAGAGAATTGCATTTC+GAAATGCAATTCTCTATGTTGATGTACTTT ((((((((((((((((((((((((((((((+))))))))))))))))))))))))))))))” the same measures were 58.3 °C, 61.9 °C, 66.1 °C, 71.3 °C and 73.2 °C.
For “GACGACGACGACGACGACGACGACGACGAC+GTCGTCGTCGTCGTCGTCGTCGTCGTCGTC ((((((((((((((((((((((((((((((+))))))))))))))))))))))))))))))”, the Tm (sodium 0.15 M, strand 0.0001 M) worked out at 83 °C.
For “AAAAAAAGCTTTTTTT+AAAAAAAGCTTTTTTT ((((((((((((((((+))))))))))))))))”, the Tm (sodium 0.12 M, strand 5 µM) came to 44 °C.
For “ATTGATATCCTTTTCTATTCATCTTTCATT+AATGAAAGATGAATAGAAAAGGATATCAAT ((((((((((((((((((((((((((((((+))))))))))))))))))))))))))))))”, the melting temperature (Tm) by setting is: (sodium 0.07 M, strand 2 µM) 53.5 °C; (sodium 0.12 M, strand 2 µM) 58.3 °C; (sodium 0.22 M, strand 2 µM) 62.3 °C; (sodium 0.62 M, strand 2 µM) 68.6 °C; (sodium 1.02 M, strand 2 µM) 70.4 °C.
Take “GTATAACCGGTTATAC+GTATAACCGGTTATAC ((((((((((((((((+))))))))))))))))”: the melting temperature (Tm) (sodium 1 M, strand 0.0001 M) was found to be 65.9 °C.
For the substance “GCCGAGGTCCATGTCGTACGC+GCGTACGACATGGACCTCGGC (((((((((((((((((((((+)))))))))))))))))))))”, the midpoint of thermal melting (Tm) (sodium 0.1 M, strand 4 µM) was found to be 69.5 °C.
In the case of “ATAACTTTACGTGTGTGACCTATTA+TAATAGGTCACACACGTAAAGTTAT (((((((((((((((((((((((((+)))))))))))))))))))))))))”, the melting temperature (Tm) (sodium 0.07 M, strand 2 µM) came out at 56.6 °C; the melting temperature (Tm) (sodium 0.12 M, strand 2 µM) came to 60.7 °C; the melting temperature (Tm) (sodium 0.22 M, strand 2 µM) was found to be 64.7 °C; the melting temperature (Tm) (sodium 0.62 M, strand 2 µM) turned out to be 69.6 °C; the Tm (sodium 1.02 M, strand 2 µM) is 71.8 °C.
For “GCCAACTCCGTCGCCGTTCGTGCGC+GCGCACGAACGGCGACGGAGTTGGC (((((((((((((((((((((((((+)))))))))))))))))))))))))” the same measures were 73.5 °C, 76.5 °C, 80.6 °C, 83.2 °C and 84.6 °C.
For “CGCCGCTGCCGACTGGAGGAGCGCGGGACG+CGTCCCGCGCTCCTCCAGTCGGCAGCGGCG ((((((((((((((((((((((((((((((+))))))))))))))))))))))))))))))” the same measures were 77.8 °C, 81.6 °C, 84.6 °C, 87.7 °C and 88.6 °C.
Turning to “CGCAAAAAAAAAACGC+GCGTTTTTTTTTTGCG ((((((((((((((((+))))))))))))))))”, for the setting “sodium 0.1 M, strand 4 µM”, the Tm came out at 54.1 °C.
“ACTGATTAGGATCCATATGTCA+TGACATATGGATCCTAATCAGT ((((((((((((((((((((((+))))))))))))))))))))))”: under “sodium 0.12 M, strand 5 µM”, the melting temperature (Tm) turned out to be 58.3 °C.
Take “AGCAAGTCGAGCAGGGCCTACGTTT+AAACGTAGGCCCTGCTCGACTTGCT (((((((((((((((((((((((((+)))))))))))))))))))))))))”: the Tm reads like this: (sodium 0.07 M, strand 2 µM) 68.3 °C; (sodium 0.12 M, strand 2 µM) 72.6 °C; (sodium 0.22 M, strand 2 µM) 76.3 °C; (sodium 0.62 M, strand 2 µM) 80 °C; (sodium 1.02 M, strand 2 µM) 81.5 °C.
In the case of “AACGCGCGTAGAGTAATTATAA+TTATAATTACTCTACGCGCGTT ((((((((((((((((((((((+))))))))))))))))))))))”, the midpoint of thermal melting (Tm) (sodium 0.12 M, strand 6 µM) worked out at 65 °C.
As for “TGATTCTACCTATGTGATTT+AAATCACATAGGTAGAATCA ((((((((((((((((((((+))))))))))))))))))))”, the midpoint of thermal melting (Tm) is, setting by setting: (sodium 0.07 M, strand 2 µM) 49.1 °C; (sodium 0.12 M, strand 2 µM) 53.5 °C; (sodium 0.22 M, strand 2 µM) 57.4 °C; (sodium 0.62 M, strand 2 µM) 62.3 °C; (sodium 1.02 M, strand 2 µM) 64.4 °C.
